Test system: Escherichia coli TOP10
Test: shrunken log2 fold change of peptide-encoding DNA abundance (4.5 h post-induction vs induction); higher = less antimicrobial activity (less host growth inhibition)
Details: time post-induction: 4.5 h; library: site-saturation at positions 5, 18, 19, 20
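Further: peptides expressed intracellularly from a pBAD plasmid library in pooled LB shake-flask culture, induced with 0.3% L-arabinose, DNA abundance read by NGS, three biological replicates, DESeq2 with apeglm shrinkage.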

Sequence	shrunken log2 fold change
RRIRKRPPRLPRPRPRPPSAPRP	0.798
RRIRTRPPRLPRPRPRPEYDPRP	-0.0227
RRIRDRPPRLPRPRPRPCCNPRP	0.255
RRIRMRPPRLPRPRPRPYRVPRP	0.111
RRIRYRPPRLPRPRPRPMKHPRP	-0.495
RRIRVRPPRLPRPRPRPMPMPRP	0.0529
RRIRRRPPRLPRPRPRPLERPRP	0.0981
RRIRYRPPRLPRPRPRPRNIPRP	-0.00665
RRIRYRPPRLPRPRPRPQWHPRP	-0.638
RRIRHRPPRLPRPRPRPVWMPRP	-0.243
RRIRLRPPRLPRPRPRPYSVPRP	0.0375
RRIRWRPPRLPRPRPRPWKNPRP	0.0346
RRIRHRPPRLPRPRPRPNMWPRP	-0.799
RRIRIRPPRLPRPRPRPQKGPRP	-0.33
RRIRQRPPRLPRPRPRPTKRPRP	0.254
RRIRVRPPRLPRPRPRPKSKPRP	-0.117
RRIRQRPPRLPRPRPRPHILPRP	-0.361
RRIRCRPPRLPRPRPRPNHEPRP	-0.15
RRIRPRPPRLPRPRPRPTIDPRP	-0.454
RRIRPRPPRLPRPRPRPMMTPRP	-0.146
RRIRMRPPRLPRPRPRPSGKPRP	0.222
RRIRNRPPRLPRPRPRPIACPRP	-0.00434
RRIRNRPPRLPRPRPRPMAKPRP	0.0197
RRIRSRPPRLPRPRPRPKPYPRP	-0.153
RRIRIRPPRLPRPRPRPYTGPRP	-0.177

Sequence	shrunken log2 fold change
RRIRDRPPRLPRPRPRPHPTPRP	0.0176
RRIRARPPRLPRPRPRPIHEPRP	-0.0242
RRIRGRPPRLPRPRPRPCRRPRP	0.117
RRIRTRPPRLPRPRPRPGTRPRP	0.2
RRIRMRPPRLPRPRPRPWYTPRP	-0.012
RRIRHRPPRLPRPRPRPMDWPRP	-0.177
RRIRHRPPRLPRPRPRPYNVPRP	-0.0512
RRIRCRPPRLPRPRPRPEGNPRP	-0.0225
RRIRFRPPRLPRPRPRPHMWPRP	-0.951
RRIRLRPPRLPRPRPRPLLPPRP	0.368
RRIRMRPPRLPRPRPRPLDEPRP	0.0492
RRIRIRPPRLPRPRPRPTWGPRP	0.0223
RRIRVRPPRLPRPRPRPSPDPRP	-0.226
RRIRVRPPRLPRPRPRPGAQPRP	0.00624
RRIRARPPRLPRPRPRPHDYPRP	0.141
RRIRQRPPRLPRPRPRPTLVPRP	0.186
RRIRVRPPRLPRPRPRPCDAPRP	0.121
RRIRNRPPRLPRPRPRPETCPRP	0.262
RRIRHRPPRLPRPRPRPPTKPRP	0.161
RRIRWRPPRLPRPRPRPMIDPRP	-0.579
RRIRARPPRLPRPRPRPPFEPRP	0.504
RRIRVRPPRLPRPRPRPFQAPRP	-0.127
RRIRERPPRLPRPRPRPSPDPRP	-0.185
RRIRWRPPRLPRPRPRPVSYPRP	-0.131
RRIRQRPPRLPRPRPRPSINPRP	-0.806

Sequence	shrunken log2 fold change
RRIRGRPPRLPRPRPRPSYMPRP	-0.0696
RRIRTRPPRLPRPRPRPEGNPRP	-0.311
RRIRARPPRLPRPRPRPMNPPRP	-0.0638
RRIRHRPPRLPRPRPRPNESPRP	-0.506
RRIRHRPPRLPRPRPRPGHQPRP	-0.149
RRIRFRPPRLPRPRPRPETIPRP	-0.103
RRIRLRPPRLPRPRPRPMWLPRP	-0.0867
RRIRLRPPRLPRPRPRPIFWPRP	-0.189
RRIRMRPPRLPRPRPRPICEPRP	0.241
RRIRRRPPRLPRPRPRPRSSPRP	0.0954
RRIRKRPPRLPRPRPRPRWHPRP	0.0132
RRIRWRPPRLPRPRPRPMAWPRP	-0.0156
RRIRIRPPRLPRPRPRPSQMPRP	-0.0716
RRIRERPPRLPRPRPRPIMTPRP	-0.714
RRIRARPPRLPRPRPRPDDDPRP	0.257
RRIRPRPPRLPRPRPRPVAEPRP	0.394
RRIRKRPPRLPRPRPRPLAMPRP	0.486
RRIRKRPPRLPRPRPRPLKFPRP	-0.118
RRIRHRPPRLPRPRPRPEPPPRP	0.545
RRIRPRPPRLPRPRPRPIFCPRP	-0.0959
RRIRDRPPRLPRPRPRPEESPRP	0.14
RRIRSRPPRLPRPRPRPKHPPRP	-0.194
RRIRFRPPRLPRPRPRPRVDPRP	-0.055
RRIRQRPPRLPRPRPRPCMTPRP	0.0109
RRIRCRPPRLPRPRPRPWYRPRP	-0.705

Sequence	shrunken log2 fold change
RRIRMRPPRLPRPRPRPDMYPRP	-0.138
RRIRQRPPRLPRPRPRPNLMPRP	-0.196
RRIRGRPPRLPRPRPRPHWQPRP	0.258
RRIRNRPPRLPRPRPRPWARPRP	0.0712
RRIRLRPPRLPRPRPRPLCCPRP	-0.146
RRIRMRPPRLPRPRPRPGRVPRP	0.919
RRIRPRPPRLPRPRPRPRGAPRP	0.495
RRIRERPPRLPRPRPRPYMLPRP	-1.42
RRIRARPPRLPRPRPRPMANPRP	0.285
RRIRARPPRLPRPRPRPCNWPRP	-0.0619
RRIRLRPPRLPRPRPRPGMMPRP	0.0343
RRIRFRPPRLPRPRPRPDRMPRP	-0.00758
RRIRNRPPRLPRPRPRPMARPRP	0.0994
RRIRSRPPRLPRPRPRPLQAPRP	0.302
RRIRTRPPRLPRPRPRPPCIPRP	0.00685
RRIRIRPPRLPRPRPRPRCWPRP	0.138
RRIRRRPPRLPRPRPRPPFSPRP	0.207
RRIRLRPPRLPRPRPRPYLSPRP	-0.0116
RRIRVRPPRLPRPRPRPHCFPRP	-0.147
RRIRARPPRLPRPRPRPDPEPRP	0.939
RRIRYRPPRLPRPRPRPAFPPRP	-0.139
RRIRTRPPRLPRPRPRPKDCPRP	0.0164
RRIRQRPPRLPRPRPRPILHPRP	-1.25
RRIRIRPPRLPRPRPRPVFRPRP	-0.169
RRIRYRPPRLPRPRPRPKICPRP	-0.0342

Sequence	shrunken log2 fold change
RRIRMRPPRLPRPRPRPCVGPRP	0.584
RRIRPRPPRLPRPRPRPQRKPRP	0.113
RRIRPRPPRLPRPRPRPWFTPRP	-0.0465
RRIRWRPPRLPRPRPRPFSCPRP	-0.00231
RRIRWRPPRLPRPRPRPFEQPRP	0.0143
RRIRRRPPRLPRPRPRPQPTPRP	0.533
RRIRFRPPRLPRPRPRPHLEPRP	-0.425
RRIRYRPPRLPRPRPRPWDVPRP	-0.114
RRIRNRPPRLPRPRPRPPFFPRP	0.162
RRIRSRPPRLPRPRPRPENIPRP	-0.278
RRIRVRPPRLPRPRPRPFIDPRP	0.0294
RRIRSRPPRLPRPRPRPHSNPRP	-0.358
RRIRYRPPRLPRPRPRPRFYPRP	-0.45
RRIRMRPPRLPRPRPRPSYRPRP	-0.0836
RRIRTRPPRLPRPRPRPHHRPRP	-0.655
RRIRWRPPRLPRPRPRPEFKPRP	0.0019
RRIRLRPPRLPRPRPRPSDNPRP	-0.49
RRIRNRPPRLPRPRPRPDISPRP	0.000389
RRIRKRPPRLPRPRPRPSNKPRP	0.0208
RRIRVRPPRLPRPRPRPDDSPRP	0.13
RRIRQRPPRLPRPRPRPHFEPRP	0.154
RRIRMRPPRLPRPRPRPHWYPRP	-0.484
RRIRDRPPRLPRPRPRPFQAPRP	0.0185
RRIRARPPRLPRPRPRPIKTPRP	0.213
RRIRDRPPRLPRPRPRPSGYPRP	0.0153

Sequence	shrunken log2 fold change
RRIRYRPPRLPRPRPRPASNPRP	-0.0548
RRIRARPPRLPRPRPRPRSIPRP	-0.0101
RRIRCRPPRLPRPRPRPHCYPRP	-0.135
RRIRRRPPRLPRPRPRPQKFPRP	-0.0996
RRIRARPPRLPRPRPRPDGWPRP	1.22
RRIRSRPPRLPRPRPRPPNNPRP	-0.404
RRIRKRPPRLPRPRPRPWSQPRP	-0.0225
RRIRPRPPRLPRPRPRPNSNPRP	-0.762
RRIRDRPPRLPRPRPRPNQEPRP	-0.0564
RRIRIRPPRLPRPRPRPFCLPRP	-0.739
RRIRFRPPRLPRPRPRPYCAPRP	-0.517
RRIRLRPPRLPRPRPRPYNWPRP	-0.0937
RRIRSRPPRLPRPRPRPTDHPRP	-0.339
RRIRERPPRLPRPRPRPPPTPRP	0.518
RRIRQRPPRLPRPRPRPEACPRP	-0.000521
RRIRYRPPRLPRPRPRPEYAPRP	-0.0128
RRIRPRPPRLPRPRPRPFSKPRP	-0.0785
RRIRKRPPRLPRPRPRPLWMPRP	-0.0285
RRIRNRPPRLPRPRPRPDFRPRP	-0.0186
RRIRYRPPRLPRPRPRPYWGPRP	-0.0899
RRIRVRPPRLPRPRPRPTARPRP	0.293
RRIRVRPPRLPRPRPRPGQVPRP	0.0448
RRIRYRPPRLPRPRPRPHTQPRP	-1.1
RRIRFRPPRLPRPRPRPQRTPRP	-0.101
RRIRLRPPRLPRPRPRPCWGPRP	0.00437
